For data set [1], the target named is T1, Bovine lipoprotein lipase (bovine, UniProt P11151 29-478).
T1 sequence (looked up): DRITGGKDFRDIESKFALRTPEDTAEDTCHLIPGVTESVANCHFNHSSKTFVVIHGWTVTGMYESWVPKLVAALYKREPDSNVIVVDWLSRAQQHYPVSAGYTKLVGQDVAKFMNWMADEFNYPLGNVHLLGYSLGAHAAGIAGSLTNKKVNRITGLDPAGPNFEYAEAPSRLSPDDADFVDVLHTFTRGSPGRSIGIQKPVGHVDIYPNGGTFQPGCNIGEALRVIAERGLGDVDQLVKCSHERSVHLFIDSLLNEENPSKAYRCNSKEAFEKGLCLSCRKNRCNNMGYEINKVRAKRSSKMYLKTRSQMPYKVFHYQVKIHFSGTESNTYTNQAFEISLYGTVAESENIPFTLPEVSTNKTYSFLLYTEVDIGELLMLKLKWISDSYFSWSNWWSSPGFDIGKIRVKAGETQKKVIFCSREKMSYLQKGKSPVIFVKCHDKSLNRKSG
The data set can be described thus: cell-based or functional assay.

Data set [2] deals with T1, Bovine lipoprotein lipase. The data set can be described thus: enzyme inhibition kinetics (global noncompetitive fit of Michaelis-Menten curves); 10 nM bovine LPL pre-incubated with ANGPTL for 10 min at 22 °C, human VLDL varied, NEFA enzyme-coupled Amplex UltraRed read-out at 37 °C, initial rates; three biological replicates. The following applies: both partners purified.

Data set [3] concerns the molecule itself. The data set can be described thus: SEC-MALS; 24-ml S-200 column, 20 mM Tris-HCl pH 8, 150 mM NaCl, 5% glycerol, 0.5 ml/min; separately concentrated SEC peaks reinjected. In general terms: In gel filtration, larger molecules generally elute earlier.
Data set [4] deals with the molecule itself. Nature of the data set: SEC; HEK-293-produced N-terminal ANGPTL3; elution compared with E. coli-produced ANGPTL3.

Here are results for four molecules from article PMC7949051, “Comparison of angiopoietin-like protein 3 and 4 reveals structural and mechanistic similarities” (The Journal of Biological Chemistry, 2021).

B1: N-terminal domain of human ANGPTL3 (S17-R224), hexamer (domain or fragment, UniProt Q9Y5C1 17-224, looked up)
chain: SRIDQDNSSFDSLSPEPKSRFAMLDDVKILANGLLQLGHGLKDFVHKTKGQINDIFQKLNIFDQSFYDLSLQTSEIKEEEKELRRTTYKLQVKNEEVKNMSLELNSKLESLLEEKILLQQKVKYLEEQLTNLIQNQPETPEHPEVTSLKTFVEKQDNSIKDLLQTVEDQYKQLNQQHSQIKEIENQLRRTSIQEPTEISLSSKPRAPR
notes: N-terminal (coiled-coil) domain of human ANGPTL3, residues S17 to R224; purified protein with tag 26.8 kDa; No TEV cleavage step is described; Same construct as m2; also called ANGPTL3 peak 1; ANGPTL3 hexamer; source: E. coli Bl21 (DE3) RIPL, purified (Ni-NTA, MonoQ anion exchange, SEC; peak 1 pooled); not shown: His6 with TEV cleavage site, N-terminal, kept
As to B1, the “IC50 of inhibition of LPL activity (10 nM LPL, 200 μg/ml VLDL triglycerides, NEFA/Amplex UltraRed assay)” value in data set [1] was determined as 14.4 nM. Also, the Ki in data set [2] stood at 13.7 nM. Besides, the “stoichiometry N” value in data set [3] was found to be 6.

B2: N-terminal ANGPTL3 (1 to 224) produced in HEK-293 cells (domain or fragment, human, UniProt Q9Y5C1 17-224, looked up)
chain: B1 chain
modifications: N-linked glycans (sites not given)
notes: signal peptide in the construct; human ANGPTL3 residues 1 to 224, collected from the expression medium; also called ANGPTL3 produced in mammalian cells
For B2, the “stoichiometry N” value in data set [4] was found to be 3.

B3: N-terminal domain of human ANGPTL3 (S17-R224), trimer (domain or fragment, UniProt Q9Y5C1 17-224, looked up)
chain: B1 chain
notes: N-terminal (coiled-coil) domain of human ANGPTL3, residues S17 to R224; purified protein with tag 26.8 kDa; Same construct as m1; also called ANGPTL3 peak 2; ANGPTL3 trimer; source: E. coli Bl21 (DE3) RIPL, purified (Ni-NTA, MonoQ anion exchange, SEC; peak 2 pooled)
For B3, the “IC50 of inhibition of LPL activity (10 nM LPL, 200 μg/ml VLDL triglycerides, NEFA/Amplex UltraRed assay)” value in data set [1] came out at 5.8 nM. Moreover, the Ki in data set [2] was found to be 7.5 nM. The “stoichiometry N” value in data set [3] was determined as 3.

B4: N-terminal domain of human ANGPTL4 (domain or fragment, UniProt Q9BY76 26-163, looked up)
chain: GPVQSKSPRFASWDEMNVLAHGLLQLGQGLREHAERTRSQLSALERRLSACGSACQGTEGSTDLPLAPESRVDPEVLHSLQTQLKAQNSRIQQLFHKVAQQQRHLEKQHLRIQHLQSQFGLLDHKHLDHEVAKPARRK
notes: N-terminal (coiled-coil) domain of human ANGPTL4; monomer 15.4 kDa; also called N-terminal ANGPTL4; ANGPTL4 trimer
As to B4, the “IC50 of inhibition of LPL activity (10 nM LPL, 200 μg/ml VLDL triglycerides, NEFA/Amplex UltraRed assay)” value in data set [1] stood at 4.8 nM. For the same molecule, the Ki in data set [2] stood at 3.6 nM. Also, the “stoichiometry N” value in data set [3] is 3.

A word on the Ki: it is a dissociation constant, usually derived from enzyme kinetics or from competition with a known ligand. In general, stoichiometry N refers to a count of units in the complex or per binding partner.
